Measured values as given in PMC5948177 (Science (New York, N.Y.), 2018).

Tests used:
[1] = molecular target: T1, a-subunit of the yeast ATP synthase Fo (yeast (strain W303-1A background), UniProt P00854 11-259); assay: cryo-EM structure
T1 sequence (looked up): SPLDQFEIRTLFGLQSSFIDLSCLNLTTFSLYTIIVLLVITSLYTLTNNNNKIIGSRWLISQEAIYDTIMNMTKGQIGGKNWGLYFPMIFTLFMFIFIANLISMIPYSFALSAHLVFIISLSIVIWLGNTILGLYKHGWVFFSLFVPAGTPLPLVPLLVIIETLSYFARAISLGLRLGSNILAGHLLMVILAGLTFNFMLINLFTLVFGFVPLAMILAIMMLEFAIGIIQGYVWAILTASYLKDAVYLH

cryo-EM structure = molecular target: the molecule itself; assay: cryo-EM structure

binding result [1]: binds
B1: c-subunit of the yeast ATP synthase Fo (c10-ring) (natural protein, yeast (strain W303-1A background), UniProt P61829 1-76, looked up)
chain: MQLVLAAKYIGAGISTIGLLGAGIGIAIVFAALINGVSRNPSIKDTVFPMAILGFALSEATGLFCLMVSFLLLFGV
stoichiometry N (cryo-EM structure): 10
